In the supplement of paper PMC7125110:
± gives the standard error. For part of these data: This sample holds only a part of the variants without activity.

B1: glmS ribozyme (parent)
chain: AUAAAAGCGCCAGAACUACAGAAAUGUAGUUGACGAGGAGGAGGUUUAUCGAAUUUUCGGCGGAUGCCUCCAAA

Assays:
Conditions in all cases: with glucosamine-6-phosphate
[1] = variants of: B1; assay: kcat; higher = faster cleavage; RNA array
Procedure, shortened: (§1)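 The measurements used barcoded ribozyme variants on sequenced MiSeq chips, transcribed in situ by E. coli RNA polymerase and tracked at 37 °C with a hybridised Cy3 probe. Glucosamine-6-phosphate, 40 μM to 10 mM in HEPES/KCl/Mg(OAc)2 buffer, was flowed in while tiles were imaged over ~14 h. Baseline-normalised signals, also normalised to non-cleaving reference variants, gave per-tile medians that were fit to one- or two-exponential decays for kobs. kcat and KM resulted from weighted Michaelis–Menten fits across concentrations.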

[2] = variants of: B1; assay: KM; higher = weaker cofactor use; RNA array
Procedure, shortened: as §1

[3] = variants of: B1; assay: self-cleavage kobs at 40 uM GlcN6P; higher = faster cleavage; RNA array
Procedure, shortened: as §1

[4] = variants of: B1; assay: self-cleavage kobs at 160 uM GlcN6P; higher = faster cleavage; RNA array
Procedure, shortened: as §1

[5] = variants of: B1; assay: self-cleavage kobs at 640 uM GlcN6P; higher = faster cleavage; RNA array
Procedure, shortened: as §1

[6] = variants of: B1; assay: self-cleavage kobs at 2500 uM GlcN6P; higher = faster cleavage; RNA array
Procedure, shortened: as §1

[7] = variants of: B1; assay: self-cleavage kobs at 10000 uM GlcN6P; higher = faster cleavage; RNA array
Procedure, shortened: as §1

| Variant | kcat [1] [s⁻¹] | KM [2] [µM] | self-cleavage kobs at 40 uM GlcN6P [3] [s⁻¹] | self-cleavage kobs at 160 uM GlcN6P [4] [s⁻¹] | self-cleavage kobs at 640 uM GlcN6P [5] [s⁻¹] | self-cleavage kobs at 2500 uM GlcN6P [6] [s⁻¹] | self-cleavage kobs at 10000 uM GlcN6P [7] [s⁻¹] |
| --- | --- | --- | --- | --- | --- | --- | --- |
| U47C U65A | 0.00113 ± 0.00024 | 930 ± 300 | 6.54e-05 ± 1.7e-05 | 0.000154 ± 2.2e-05 | 0.000443 ± 9.4e-05 | 0.00121 ± 0.00023 | 0.00092 ± 0.00017 |
| A14U A39U | 0.00814 ± 0.0024 | 3050 ± 1200 | 0.000133 ± 1.7e-05 | 0.000258 ± 6.7e-05 | 0.00161 ± 0.00024 | 0.00346 ± 0.00063 | 0.00632 ± 0.00089 |
| A15C U55G | 0.00196 ± 0.00085 | – | 0.000128 ± 3e-05 | 0.000255 ± 4.7e-05 | – | 0.00118 ± 0.0002 | 0.00334 ± 0.00064 |
| A12U C67U C70G | 2.06e-05 ± 6.6e-06 | – | – | – | – | – | – |
| U49C C58G | < 1e-05 | – | – | – | – | – | < 1e-05 |
| A33G C68A | 1.39e-05 ± 1.5e-06 | – | – | – | – | – | – |
| U30C G32A | 0.00241 ± 0.00034 | 3840 ± 740 | – | 0.000106 ± 1.2e-05 | 0.000321 ± 4.3e-05 | 0.000932 ± 8.8e-05 | 0.00181 ± 0.00026 |
| C50A U65G | 2.65e-05 ± 9.7e-06 | – | – | – | – | – | – |
| C11G C50G | 0.000265 ± 6.8e-05 | – | 6.35e-05 ± 1.4e-05 | 0.00024 ± 4.8e-05 | 0.000352 ± 7.5e-05 | 0.000209 ± 5e-05 | 0.000187 ± 9.3e-05 |
| C68G U69G | 2.17e-05 ± 5e-06 | – | – | – | – | 2.65e-05 ± 1.2e-05 | – |
| A39C A48U | 0.000107 ± 1.8e-05 | 2930 ± 1400 | < 1e-05 | < 1e-05 | – | 5.68e-05 ± 1.3e-05 | 8.1e-05 ± 1.2e-05 |
| G7A C70U | 6.43e-05 ± 1.1e-05 | 5580 ± 2200 | – | – | – | – | 4.14e-05 ± 7.5e-06 |
| A39U A64G | 0.031 ± 0.012 | – | 0.000447 ± 5.6e-05 | 0.00134 ± 0.00017 | 0.00498 ± 0.0006 | 0.0101 ± 0.0015 | 0.0327 ± 0.0047 |
| A12G A33U | 1.86e-05 ± 6.4e-06 | – | < 1e-05 | – | – | – | < 1e-05 |
| A15G U65G | 0.0045 ± 0.0017 | 4200 ± 2000 | 4.05e-05 ± 1e-05 | 0.000133 ± 3.7e-05 | 0.000664 ± 0.00013 | 0.00285 ± 0.0006 | 0.00279 ± 0.00062 |
| U31G C34A G37U C67U | 3.45e-05 ± 1.2e-05 | – | – | – | – | – | – |
| A48G C71U | 8.1e-05 ± 1.3e-05 | – | – | – | 4.86e-05 ± 8.2e-06 | 0.000101 ± 1.1e-05 | 7.03e-05 ± 6.3e-06 |
| U46A G62A | < 1e-05 | – | < 1e-05 | – | – | < 1e-05 | – |
| G59A C67A | 1.53e-05 ± 3.7e-06 | – | – | – | – | – | – |

| Variant | kcat [1] [s⁻¹] | KM [2] [µM] | self-cleavage kobs at 40 uM GlcN6P [3] [s⁻¹] | self-cleavage kobs at 160 uM GlcN6P [4] [s⁻¹] | self-cleavage kobs at 640 uM GlcN6P [5] [s⁻¹] | self-cleavage kobs at 2500 uM GlcN6P [6] [s⁻¹] | self-cleavage kobs at 10000 uM GlcN6P [7] [s⁻¹] |
| --- | --- | --- | --- | --- | --- | --- | --- |
| U54C U57A | 0.000407 ± 0.00018 | – | – | – | 7.93e-05 ± 1.9e-05 | 0.000112 ± 2.5e-05 | 0.000297 ± 4.3e-05 |
| U49A C70U | 2.22e-05 ± 1.1e-05 | – | – | – | – | 3.89e-05 ± 1.9e-05 | – |
| U65C C68U | 2.26e-05 ± 1.2e-06 | 558 ± 230 | – | – | – | – | – |
| A14U U54C | 0.00754 ± 0.0024 | 1830 ± 830 | 0.00021 ± 2.8e-05 | 0.000513 ± 8.8e-05 | 0.00201 ± 0.00026 | 0.00338 ± 0.00053 | 0.00856 ± 0.0012 |
| U47A C67A | 0.00576 ± 0.0027 | – | 0.000186 ± 2.7e-05 | 0.000303 ± 5.4e-05 | 0.0014 ± 0.00021 | 0.00288 ± 0.00043 | 0.00568 ± 0.0013 |
| A33U U46C | 2.23e-05 ± 3.7e-06 | – | – | – | – | – | – |
| A15G A48C | 0.000466 ± 1.6e-05 | 2830 ± 210 | – | 2.29e-05 ± 1.1e-05 | 9.04e-05 ± 1.7e-05 | 0.000212 ± 3.2e-05 | 0.000365 ± 3.6e-05 |
| U55G C67A | 0.000773 ± 0.00021 | – | 0.000267 ± 4.8e-05 | 0.000394 ± 8.8e-05 | 0.000772 ± 0.00013 | – | – |
| A33C C70G | < 1e-05 | – | – | < 1e-05 | – | < 1e-05 | < 1e-05 |
| G32U G40C | 0.000104 ± 1.3e-05 | 1250 ± 520 | – | – | 2.66e-05 ± 1.3e-05 | 7.79e-05 ± 1.1e-05 | 8.66e-05 ± 1.3e-05 |
| G32A C71A | 0.000628 ± 0.00012 | 2570 ± 890 | – | 5.89e-05 ± 1.2e-05 | 0.000112 ± 1.6e-05 | 0.000293 ± 4.5e-05 | 0.00052 ± 6e-05 |
| A14G U57G | 0.000171 ± 2.6e-06 | 2380 ± 88 | – | – | 3.71e-05 ± 8e-06 | 8.67e-05 ± 9.4e-06 | 0.000139 ± 1.3e-05 |
| G29C A39U | 0.00205 ± 0.00072 | – | 5.54e-05 ± 1.3e-05 | 6.75e-05 ± 1.6e-05 | 0.000323 ± 6.3e-05 | 0.000753 ± 0.00014 | 0.00153 ± 0.00022 |
| A15U A52U C68A | 2.12e-05 ± 5.2e-06 | – | – | – | – | – | < 1e-05 |
| G9U A42G U47C | < 1e-05 | – | – | < 1e-05 | < 1e-05 | – | – |
| A6U A52U | < 1e-05 | – | – | < 1e-05 | – | – | < 1e-05 |
| A48U U56C | 6.46e-05 ± 1e-05 | – | – | < 1e-05 | – | 4.13e-05 ± 1.7e-05 | 5.09e-05 ± 7.6e-06 |
| U49G C67U | 0.000381 ± 5.6e-05 | 2520 ± 770 | – | – | 7.24e-05 ± 1.9e-05 | 0.000257 ± 6.4e-05 | 0.000292 ± 4.6e-05 |
